Measured values from US20240182536A1 (MURAL ONCOLOGY, published 2024).

Legend:
[1] = molecular target: T1, IL-18 receptors on HEK-Blue IL-18 reporter cells (UniProt Q13478 19-541; O95256 20-599, limits assumed); test: cell-based or functional assay
T1 sequence (looked up) 1: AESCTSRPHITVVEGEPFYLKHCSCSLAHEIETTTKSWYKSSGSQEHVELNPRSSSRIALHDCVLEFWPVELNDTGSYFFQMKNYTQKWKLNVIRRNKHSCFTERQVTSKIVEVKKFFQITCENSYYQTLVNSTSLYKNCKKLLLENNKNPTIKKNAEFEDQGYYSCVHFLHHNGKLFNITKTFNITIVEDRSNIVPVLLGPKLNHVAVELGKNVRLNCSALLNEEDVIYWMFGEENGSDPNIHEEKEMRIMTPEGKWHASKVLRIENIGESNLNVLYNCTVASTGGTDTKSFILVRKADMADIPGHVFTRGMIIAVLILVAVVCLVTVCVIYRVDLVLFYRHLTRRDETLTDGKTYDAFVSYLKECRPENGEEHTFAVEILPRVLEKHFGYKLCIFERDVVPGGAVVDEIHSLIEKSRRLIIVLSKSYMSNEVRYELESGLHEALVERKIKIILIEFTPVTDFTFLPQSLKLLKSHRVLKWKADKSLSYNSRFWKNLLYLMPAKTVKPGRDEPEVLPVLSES
T1 sequence (looked up) 2: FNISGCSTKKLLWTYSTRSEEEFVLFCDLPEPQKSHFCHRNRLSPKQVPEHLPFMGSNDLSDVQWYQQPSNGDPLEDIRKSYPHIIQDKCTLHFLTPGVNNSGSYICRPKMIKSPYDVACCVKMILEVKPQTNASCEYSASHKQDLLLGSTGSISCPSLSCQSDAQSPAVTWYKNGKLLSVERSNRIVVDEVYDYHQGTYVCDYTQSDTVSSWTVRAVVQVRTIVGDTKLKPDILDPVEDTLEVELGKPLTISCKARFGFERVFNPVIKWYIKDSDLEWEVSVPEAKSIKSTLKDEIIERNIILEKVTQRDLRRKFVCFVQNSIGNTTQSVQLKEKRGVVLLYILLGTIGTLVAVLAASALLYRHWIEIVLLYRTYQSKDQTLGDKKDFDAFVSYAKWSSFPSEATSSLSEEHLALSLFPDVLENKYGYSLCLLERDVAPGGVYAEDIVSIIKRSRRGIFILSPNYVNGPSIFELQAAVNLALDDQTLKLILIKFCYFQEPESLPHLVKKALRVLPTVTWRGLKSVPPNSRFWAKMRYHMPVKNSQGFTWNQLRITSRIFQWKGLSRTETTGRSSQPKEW

[2] = molecular target: T2, IL-18 binding protein (IL-18BP) (UniProt O95998 31-194); test: cell-based or functional assay
T2 sequence (looked up): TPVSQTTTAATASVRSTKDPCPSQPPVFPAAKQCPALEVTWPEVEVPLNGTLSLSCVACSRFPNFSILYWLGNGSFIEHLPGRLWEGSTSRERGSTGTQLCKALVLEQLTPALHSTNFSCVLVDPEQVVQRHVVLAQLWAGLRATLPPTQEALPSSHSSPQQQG

B1: IL-18 variant G3S, E6Q, K53S, D54Y, S55H, N91L, R104Q (ligand)
chain: YFSKLQSKLSVIRNLNDQVLFIDQGNRPLFEDMTDSDMRDNAPRTIFIISMYSYHQPRGMAVTISVKSEKISTLSSENKIISFKEMNPPDLIKDTKSDIIFFQQSVPGHDNKMQFESSSYEGYFLASEKERDLFKLILKKEDELGDRSIMFTVQNED
Activity, No BP, DF-100000 [1]: 0.49
Activity, No BP, DF-500000 [1]: 0.16
Activity, No BP, DF-2500000 [1]: 0.08
Activity, +100 nM BP, DF-1000002 [2]: 0.51
Activity, +100 nM BP, DF-5000003 [2]: 0.2
Activity, +100 nM BP, DF-25000004 [2]: 0.1
Ratio (-BP/+BP), DF-1000005 [2]: 0.95
Ratio (-BP/+BP), DF-5000006 [2]: 0.81
Ratio (-BP/+BP), DF-25000007 [2]: 0.88

B2: IL-18 variant G3Q, E6S, S55V, T63A, N91T (ligand)
chain: YFQKLSSKLSVIRNLNDQVLFIDQGNRPLFEDMTDSDMRDNAPRTIFIISMYKDVQPRGMAVAISVKSEKISTLSSENKIISFKEMNPPDTIKDTKSDIIFFQRSVPGHDNKMQFESSSYEGYFLASEKERDLFKLILKKEDELGDRSIMFTVQNED
Activity, No BP, DF-100000 [1]: 1.94
Activity, No BP, DF-500000 [1]: 1.84
Activity, No BP, DF-2500000 [1]: 1.61
Activity, +100 nM BP, DF-1000002 [2]: 1.15
Activity, +100 nM BP, DF-5000003 [2]: 0.46
Activity, +100 nM BP, DF-25000004 [2]: 0.15
Ratio (-BP/+BP), DF-1000005 [2]: 1.68
Ratio (-BP/+BP), DF-5000006 [2]: 4.03
Ratio (-BP/+BP), DF-25000007 [2]: 10.7

B3: IL-18 variant G3Y, E6S, K53S, D54W, S55L, N91I (ligand)
chain: YFYKLSSKLSVIRNLNDQVLFIDQGNRPLFEDMTDSDMRDNAPRTIFIISMYSWLQPRGMAVTISVKSEKISTLSSENKIISFKEMNPPDIIKDTKSDIIFFQRSVPGHDNKMQFESSSYEGYFLASEKERDLFKLILKKEDELGDRSIMFTVQNED
Activity, No BP, DF-100000 [1]: 0.7
Activity, No BP, DF-500000 [1]: 0.24
Activity, No BP, DF-2500000 [1]: 0.15
Activity, +100 nM BP, DF-1000002 [2]: 0.78
Activity, +100 nM BP, DF-5000003 [2]: 0.26
Activity, +100 nM BP, DF-25000004 [2]: 0.12
Ratio (-BP/+BP), DF-1000005 [2]: 0.9
Ratio (-BP/+BP), DF-5000006 [2]: 0.95
Ratio (-BP/+BP), DF-25000007 [2]: 1.22

B4: IL-18 variant G3P, E6V, K53A, D54W, S55P, T63S, N91L, R104K, Q154R (ligand)
chain: YFPKLVSKLSVIRNLNDQVLFIDQGNRPLFEDMTDSDMRDNAPRTIFIISMYAWPQPRGMAVSISVKSEKISTLSSENKIISFKEMNPPDLIKDTKSDIIFFQKSVPGHDNKMQFESSSYEGYFLASEKERDLFKLILKKEDELGDRSIMFTVRNED
Activity, No BP, DF-100000 [1]: 0.56
Activity, No BP, DF-500000 [1]: 0.18
Activity, No BP, DF-2500000 [1]: 0.08
Activity, +100 nM BP, DF-1000002 [2]: 0.6
Activity, +100 nM BP, DF-5000003 [2]: 0.19
Activity, +100 nM BP, DF-25000004 [2]: 0.09
Ratio (-BP/+BP), DF-1000005 [2]: 0.94
Ratio (-BP/+BP), DF-5000006 [2]: 0.96
Ratio (-BP/+BP), DF-25000007 [2]: 0.91

B5: IL-18 variant G3Q, E6N (ligand)
chain: YFQKLNSKLSVIRNLNDQVLFIDQGNRPLFEDMTDSDMRDNAPRTIFIISMYKDSQPRGMAVTISVKSEKISTLSSENKIISFKEMNPPDNIKDTKSDIIFFQRSVPGHDNKMQFESSSYEGYFLASEKERDLFKLILKKEDELGDRSIMFTVQNED
Activity, No BP, DF-100000 [1]: 1.95
Activity, No BP, DF-500000 [1]: 1.93
Activity, No BP, DF-2500000 [1]: 1.85
Activity, +100 nM BP, DF-1000002 [2]: 1.88
Activity, +100 nM BP, DF-5000003 [2]: 1.52
Activity, +100 nM BP, DF-25000004 [2]: 0.84
Ratio (-BP/+BP), DF-1000005 [2]: 1.04
Ratio (-BP/+BP), DF-5000006 [2]: 1.27
Ratio (-BP/+BP), DF-25000007 [2]: 2.2

B6: IL-18 variant G3P, E6R, D54W, S55Q, T63S, N91T, R104H (ligand)
chain: YFPKLRSKLSVIRNLNDQVLFIDQGNRPLFEDMTDSDMRDNAPRTIFIISMYKWQQPRGMAVSISVKSEKISTLSSENKIISFKEMNPPDTIKDTKSDIIFFQHSVPGHDNKMQFESSSYEGYFLASEKERDLFKLILKKEDELGDRSIMFTVQNED
Activity, No BP, DF-100000 [1]: 0.74
Activity, No BP, DF-500000 [1]: 0.25
Activity, No BP, DF-2500000 [1]: 0.09
Activity, +100 nM BP, DF-1000002 [2]: 0.89
Activity, +100 nM BP, DF-5000003 [2]: 0.26
Activity, +100 nM BP, DF-25000004 [2]: 0.12
Ratio (-BP/+BP), DF-1000005 [2]: 0.83
Ratio (-BP/+BP), DF-5000006 [2]: 0.96
Ratio (-BP/+BP), DF-25000007 [2]: 0.78

B7: IL-18 variant G3T, E6Q, K53G, D54G, S55H, T63A, S65T, N91R, R104Q (ligand)
chain: YFTKLQSKLSVIRNLNDQVLFIDQGNRPLFEDMTDSDMRDNAPRTIFIISMYGGHQPRGMAVAITVKSEKISTLSSENKIISFKEMNPPDRIKDTKSDIIFFQQSVPGHDNKMQFESSSYEGYFLASEKERDLFKLILKKEDELGDRSIMFTVQNED
Activity, No BP, DF-100000 [1]: 0.58
Activity, No BP, DF-500000 [1]: 0.18
Activity, No BP, DF-2500000 [1]: 0.12
Activity, +100 nM BP, DF-1000002 [2]: 0.49
Activity, +100 nM BP, DF-5000003 [2]: 0.18
Activity, +100 nM BP, DF-25000004 [2]: 0.11
Ratio (-BP/+BP), DF-1000005 [2]: 1.19
Ratio (-BP/+BP), DF-5000006 [2]: 1.03
Ratio (-BP/+BP), DF-25000007 [2]: 1.14

B8: IL-18 variant G3Y, E6S, K53S, D54W, S55L, T63S, N91I (ligand)
chain: YFYKLSSKLSVIRNLNDQVLFIDQGNRPLFEDMTDSDMRDNAPRTIFIISMYSWLQPRGMAVSISVKSEKISTLSSENKIISFKEMNPPDIIKDTKSDIIFFQRSVPGHDNKMQFESSSYEGYFLASEKERDLFKLILKKEDELGDRSIMFTVQNED
Activity, No BP, DF-100000 [1]: 0.68
Activity, No BP, DF-500000 [1]: 0.23
Activity, No BP, DF-2500000 [1]: 0.1
Activity, +100 nM BP, DF-1000002 [2]: 0.62
Activity, +100 nM BP, DF-5000003 [2]: 0.23
Activity, +100 nM BP, DF-25000004 [2]: 0.12
Ratio (-BP/+BP), DF-1000005 [2]: 1.09
Ratio (-BP/+BP), DF-5000006 [2]: 0.99
Ratio (-BP/+BP), DF-25000007 [2]: 0.84

B9: IL-18 variant G3N, E6S, K53Q, D54W, S55R, N91T, R104T (ligand)
chain: YFNKLSSKLSVIRNLNDQVLFIDQGNRPLFEDMTDSDMRDNAPRTIFIISMYQWRQPRGMAVTISVKSEKISTLSSENKIISFKEMNPPDTIKDTKSDIIFFQTSVPGHDNKMQFESSSYEGYFLASEKERDLFKLILKKEDELGDRSIMFTVQNED
Activity, No BP, DF-100000 [1]: 0.46
Activity, No BP, DF-500000 [1]: 0.14
Activity, No BP, DF-2500000 [1]: 0.14
Activity, +100 nM BP, DF-1000002 [2]: 0.46
Activity, +100 nM BP, DF-5000003 [2]: 0.15
Activity, +100 nM BP, DF-25000004 [2]: 0.14
Ratio (-BP/+BP), DF-1000005 [2]: 0.99
Ratio (-BP/+BP), DF-5000006 [2]: 0.93
Ratio (-BP/+BP), DF-25000007 [2]: 1.02

B10: IL-18 variant G3P, E6K, K53M, D54W, S55N, T63S, N91I (ligand)
chain: YFPKLKSKLSVIRNLNDQVLFIDQGNRPLFEDMTDSDMRDNAPRTIFIISMYMWNQPRGMAVSISVKSEKISTLSSENKIISFKEMNPPDIIKDTKSDIIFFQRSVPGHDNKMQFESSSYEGYFLASEKERDLFKLILKKEDELGDRSIMFTVQNED
Activity, No BP, DF-100000 [1]: 0.64
Activity, No BP, DF-500000 [1]: 0.21
Activity, No BP, DF-2500000 [1]: 0.08
Activity, +100 nM BP, DF-1000002 [2]: 0.65
Activity, +100 nM BP, DF-5000003 [2]: 0.2
Activity, +100 nM BP, DF-25000004 [2]: 0.09
Ratio (-BP/+BP), DF-1000005 [2]: 0.98
Ratio (-BP/+BP), DF-5000006 [2]: 1.07
Ratio (-BP/+BP), DF-25000007 [2]: 0.91
